# Laboratory results taken from the supplement of paper PMC12042874.
# ± gives the uncertainty stated by the source.
# Assay: amyloid nucleation score (Sup35N fusion, yeast selection) (log enrichment); library NNK2; higher = more nucleation; inactive = no reads after selection
# Method in brief: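 The nucleation score is the DiMSum log enrichment of output over input reads, centred on the mode score of non-aggregating sequences. Only sequences with 100 or more input reads were scored, using Illumina sequencing of input and output plasmid inserts. Psi-negative yeast expressing Sup35N fused to peptides of 20 random codons were induced 24 hours with 100 μM copper sulfate and grown 7 days at 30°C on medium lacking adenine and uracil.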
row,Substance,amyloid nucleation score
1,NAYFMLEILRTKWTQDSTER,-0.99 ± 0.78
2,NCCEMNVLYLSIRLLFHVTA,1.58 ± 0.097
3,NCFNLEKGQMCPDWNGSSYT,-0.667 ± 0.39
4,NCKWCNT,0.996 ± 0.29
5,NCTHPFDMTPNFFWSYGIVG,-0.656 ± 1.1
6,NCVTHFMFNLDWSLWFEVCF,-1.04 ± 1.1
7,NCWNLICLKSSFRR,9.054 ± 0.05
8,NCYGVVYSLCNMEVLSMWHE,7.723 ± 0.036
9,NDCSGKDVVILQQE,0.192 ± 1
10,NDKCKLVLIGLDFNELVQPS,-0.708 ± 1.1
11,NDLYDSINEA,-0.885 ± 0.38
12,NDSCELLCESITYTAWFSGQ,3.22 ± 0.12
13,NDTRSLLML,0.259 ± 0.24
14,NDWSHRSIFMMVCFWGVHSH,inactive
15,NEDLIEKSLFCLAYSLFPTS,-0.266 ± 0.62
16,NEHGGLVNYGVCISGATYLA,4.21 ± 0.097
17,NELKY,0.02 ± 0.56
18,NERQEIIPDSSPETHVSNIT,1.12 ± 0.12
19,NERYP,-0.865 ± 0.33
20,NESNYRVVRGKFKSEFRAEL,3.61 ± 0.13
21,NEYYAFFRLSADSASS,0.571 ± 0.51
22,NFAGLLY,inactive
23,NFCPLPLVRCIECLRTMDGV,inactive
24,NFEFFYRRNHT,inactive
25,NFFVFYIR,7.06 ± 0.072

row,Substance,amyloid nucleation score
1,NFLCVSDKGCDCVESKLG,8.145 ± 0.033
2,NFLMV,0.75 ± 0.47
3,NFNCAPFLVLYQQVGQAFSL,6.578 ± 0.06
4,NFPAWCV,0.495 ± 0.19
5,NFVIQ,0.011 ± 0.56
6,NFVKRV,-0.509 ± 0.48
7,NGGPHRPDSLVWYLEHKMRQ,inactive
8,NGSDRWQASHRTNWGMVGFG,0.597 ± 0.44
9,NGSRI,0.018 ± 0.31
10,NGTCLYAYIMIRLISNEFSR,-0.417 ± 0.42
11,NGVKGLKIMDSRSGVT,6.043 ± 0.046
12,NHHTEDMVK,0.367 ± 0.32
13,NHLGLTDCTFQGLDSG,-1.09 ± 1.1
14,NHMKFAGLGGCYSYCTFLVD,6.587 ± 0.045
15,NHRAIYF,0.205 ± 0.77
16,NHTLVLLIRNSNVHVSTAQS,10.78 ± 0.07
17,NHVARMFLKQRFFSNMS,inactive
18,NHVNNLIHDFRPALEHLRDT,-0.134 ± 0.45
19,NIAWTVDRYRKGSARGV,1.17 ± 0.23
20,NICITHPH,0.299 ± 0.64
21,NIGRYIIQVGSNGEANWHRV,inactive
22,NILVLLVTGVTLGR,4.11 ± 0.059
23,NINNFLSISIFNGYASHVNC,inactive
24,NINTSYHNSPCPQYTLASMW,-0.231 ± 1
25,NINYGSSA,-0.746 ± 0.78

row,Substance,amyloid nucleation score
1,NIPRRGIVGWTAL,inactive
2,NIRMVNLLAYVCPEVIREAC,inactive
3,NIRSHKGIVLVG,inactive
4,NIVYESDVVFSCISKYWL,5.426 ± 0.04
5,NIYGDNVGCYSTECYNTKLI,-0.305 ± 0.74
6,NIYIWVSTMFLLKSEQSSSN,6.038 ± 0.058
7,NKARWAPVRMEALLVAQRVG,1.28 ± 0.38
8,NKEKN,2.58 ± 0.13
9,NKGVCDEVSVSSISVAIF,-0.093 ± 0.63
10,NKMGVKVYTRIAQHSGHLFA,5.21 ± 0.094
11,NKNVSTGWYCVIESI,1.26 ± 0.6
12,NLFQRCREGDMVRNSSVLDG,-0.017 ± 1
13,NLKLPNRSSWVLPVQYRPFD,3.28 ± 0.053
14,NLKMDLLRFLHMSLRYISTR,-0.36 ± 0.64
15,NLMVVRRSDHSRPGNCHWQA,0.381 ± 0.3
16,NLNFPMRSSILDCAGDNVRR,0.49 ± 0.8
17,NLRNKIVGLTKGLVCRANVV,2.34 ± 0.091
18,NLRYVFRFII,2.9 ± 0.073
19,NLSYSVVMTGISGAMTTCCF,3.64 ± 0.11
20,NLTFACVVYANWVILTHGAR,6.336 ± 0.061
21,NLVAMPDQVAGSTCRVCNNN,0.486 ± 0.51
22,NLVCNSLFRDDKVSTELTEM,inactive
23,NMCWFKPG,-0.329 ± 0.17
24,NMDYDIKEQFLSRVPSPRES,-0.95 ± 0.78
25,NMFIRKEYWSTLALEIFWWS,-0.441 ± 0.4

row,Substance,amyloid nucleation score
1,NMFSLWVYKLAMFWIY,-0.701 ± 1.1
2,NMGIFALGAEQD,-0.039 ± 1.1
3,NMHNTCMYKRKLVMDSSVWL,inactive
4,NMLWASMYH,-0.546 ± 0.42
5,NMTKRWMVCYHFFFKNYDLT,0.207 ± 0.8
6,NNFWSNGG,-0.285 ± 0.48
7,NNLPTQIYYVLNSPSEVRLN,0.579 ± 0.31
8,NNMKVDAVVYIATKPGHWDQ,7.589 ± 0.034
9,NNNCGRLGVYI,-0.962 ± 1
10,NNPWFCGGSLWLYGSQYSPS,3.23 ± 0.078
11,NNRVVFTGRFL,-1.45 ± 0.47
12,NNSYVFFFI,7.013 ± 0.064
13,NNVFELCERSKLPIKKFHDV,-0.615 ± 1
14,NNVGWVLHDGRFFSVSHYIA,0.294 ± 1.1
15,NNVRMYLSFRAIVY,-1.19 ± 0.76
16,NNWVAAHSLS,inactive
17,NPFLFAYANYLLLMCIGRVY,-0.044 ± 0.61
18,NPGVDQTHFLGFLI,-1.85 ± 1.1
19,NPLRWEWAGVWLRYTR,0.816 ± 0.58
20,NPLYEARKRNRLYTFGATRF,3.65 ± 0.084
21,NPWIAIKWHNTVFLRHIWQM,-0.494 ± 0.22
22,NPYAHTGHCVIRGFFVA,0.275 ± 0.53
23,NQFLMVWSDIDVRKDVRFLH,-0.977 ± 0.48
24,NQYMFFGSHRD,0.424 ± 0.49
25,NRAFLMSYAPRRHFGAMSKA,3.51 ± 0.073

row,Substance,amyloid nucleation score
1,NRICYRLGCLRADNDNDLSG,-0.234 ± 0.26
2,NRLMVPSTNKFTCLPE,0.056 ± 0.36
3,NRNLSYHT,0.633 ± 0.8
4,NRRFSSGSVSSLKFLRSVWA,-0.428 ± 0.61
5,NRSFNMHPCGILKKNLVVGV,0.613 ± 0.74
6,NRSGEYRPLMMCVLGPLSTD,0.687 ± 0.24
7,NRSLD,-1.26 ± 0.54
8,NRSMSISGMTGYEQLKRHGT,0.023 ± 0.27
9,NRTFSHWTCLYLFLSTLKRE,-1.06 ± 0.76
10,NRYTNGPNF,-0.106 ± 0.29
11,NSFVYGCKCYALTFLRTFLV,-1.48 ± 0.62
12,NSINRMVVQLVG,3.9 ± 0.087
13,NSIYTESHGCTSSCLYGSGY,-0.839 ± 0.78
14,NSLLNFVFSVYVKACIIPYT,inactive
15,NSPPVLLHMWRFRRRDTRRY,-0.551 ± 0.61
16,NSRLLLTHRRISPSPWYVGV,1.09 ± 0.16
17,NSRRQERWCFIMTLVDFDVV,-0.431 ± 0.4
18,NSTLGGVFACYYFALSHAAE,6.41 ± 0.059
19,NTCRSYNRNVIIRARPRPGL,5.14 ± 0.069
20,NTFFQYDPRHRGHTAGWCGE,0.07 ± 0.54
21,NTGFNCCNHFFRADGSLVEC,3.39 ± 0.15
22,NTGWILPYCKRGNSALEGWL,4.31 ± 0.056
23,NTLGSELLLFA,1.75 ± 0.2
24,NTLSRYHFNGVRVYCEMTAL,inactive
25,NTQVTQVILYLRPWV,9.151 ± 0.038

row,Substance,amyloid nucleation score
1,NTSFFDGTFLY,0.598 ± 0.57
2,NTSMSPSQYCC,2.86 ± 0.16
3,NTYVRSRHMAMSYCRMQMCL,0.141 ± 0.27
4,NVCIKLARCVVGLNLRFRGS,-0.347 ± 0.79
5,NVCNTNWESVRKAWFSNMMV,0.775 ± 0.52
6,NVFLS,inactive
7,NVKSYKGQRFVAFGGGSVYA,0.567 ± 0.32
8,NVKTKLCAGSKYSFPF,0.213 ± 0.43
9,NVMKVLSNRL,1.61 ± 0.1
10,NVPLFRSVSGDPVHHPLI,2.41 ± 0.15
11,NVSVGVPLQRTILLDLCTGT,inactive
12,NVTQMRGSDISLLRMFESNY,0.454 ± 0.45
13,NVVSLIIQRKLRPAPVGSFR,0.218 ± 1.1
14,NWGTGQPYNRMCMVH,inactive
15,NWKWVRSKVAWPMRSEHHVE,1.65 ± 0.21
16,NWVRINYWLRAIIKSELRVG,-0.155 ± 0.49
17,NWWLTHVHLVSFYVVSWGWV,3.35 ± 0.12
18,NYILSMLCKMNARCLVTWRI,0.712 ± 0.4
19,NYLSLVGRFNMGWGESNGRR,5.888 ± 0.058
20,NYNLRDHSDVRVRCSLALSE,inactive
21,NYQGI,-0.874 ± 0.56
22,NYQIHVRVIRHLMTLGISAQ,0.236 ± 0.35
23,PAFMSV,-1.05 ± 0.36
24,PAHVSYILSLCLINVC,4.34 ± 0.072
25,PAPCTFRYLAITCGLTRYTC,-0.143 ± 0.34

row,Substance,amyloid nucleation score
1,PASTREDGWFYCAHSVVSSQ,0.346 ± 0.54
2,PAVSYFFITFYVIVRFRLAE,2.86 ± 0.18
3,PAYRYKHSNWKNPRQ,inactive
4,PCCRGRRSSLGRAIKGAEAK,0.009 ± 0.23
5,PCGNPLQRYS,1.62 ± 0.4
6,PCIWGDVVL,0.506 ± 0.41
7,PCNTVLASPRYHVGGIYNLK,-0.727 ± 0.78
8,PCRLHLAWIVSLMT,4.21 ± 0.067
9,PCSANWRLYIANISGSFPMR,5.34 ± 0.083
10,PDFSDFITHLIGFRSMGTGG,-0.694 ± 1.1
11,PDISKECLTIGNGSACELTD,0.827 ± 0.28
12,PDVVNNGGSYHLHWGCWCW,3.25 ± 0.14
13,PEFICYCANSACDWSTYCIG,7.356 ± 0.036
14,PEFITEFQALASFEYVMLRF,-1.23 ± 0.41
15,PFDFWRLISSLG,0.531 ± 0.81
16,PFFLMISAVISHHNEHRHTM,5.926 ± 0.058
17,PFMRYPWYFIAGYV,-1.52 ± 0.49
18,PFRKDVTLPLIFVLHVLQPD,-0.191 ± 0.54
19,PFYLVRRGWNIWNSNGVECH,-0.161 ± 1.1
20,PGDGTFLMFLACGCFRPFCG,-0.181 ± 0.49
21,PGLLQGLKSGWSKTYKLLTR,0.808 ± 0.8
